Source: paper PMC5681435, “Differential Regulation of G1 CDK Complexes by the Hsp90-Cdc37 Chaperone System” (Cell Reports, 2017)
Numbering of substitutions follows the chain as printed. Numbers in names are those of the source.

T1: biotinylated C-terminally Avi-tagged Cdc37 (human, UniProt Q16543 1-378, biotin (on the Avi tag))
T1 construct: not shown: Avi tag, C-terminal, kept
T1 sequence (looked up): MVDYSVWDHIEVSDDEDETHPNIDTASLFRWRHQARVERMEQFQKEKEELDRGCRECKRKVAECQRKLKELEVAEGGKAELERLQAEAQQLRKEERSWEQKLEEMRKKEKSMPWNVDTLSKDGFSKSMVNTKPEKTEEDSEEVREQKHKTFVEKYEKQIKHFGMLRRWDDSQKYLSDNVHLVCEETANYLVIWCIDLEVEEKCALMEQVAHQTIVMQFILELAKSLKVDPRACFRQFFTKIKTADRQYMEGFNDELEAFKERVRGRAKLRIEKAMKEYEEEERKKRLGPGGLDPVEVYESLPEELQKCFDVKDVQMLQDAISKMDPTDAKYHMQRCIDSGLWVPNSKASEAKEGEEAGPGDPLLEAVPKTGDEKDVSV

B1: Vcyclin (Avi-tagged, for direct HTRF) (natural protein)
chain: MADSPNRLNRAKIDSTTMKDPRVLNNLKLRELLLPKFTSLWEIQTEVTVDNRTILLTWMHLLCESFELDKSVFPLSVSILDRYLCKKQGTKKTLQKIGAACVLIGSKIRTVKPMTVSKLTYLSCDCFTNLELINQEKDILEALKWDTEAVLATDFLIPLCNALKIPEDLWPQLYEAASTTICKALIQPNIALLSPGLICAGGLLTTIETDNTNCRPWTCYLEDLSSILNFSTNTVRTVKDQVSEAFSLYDLEIL
modifications: biotin (on the Avi tag)
notes: also called viral D-type cyclin from Herpesvirus saimiri; source: purified
B2: Avi-tagged Kcyclin (natural protein)
chain: MATANNPPSGLLDPTLCEDRIFYNILEIEPRFLTSDSVFGTFQQSLTSHMRKLLGTWMFSVCQEYNLEPNVVALALNLLDRLLLIKQVSKEHFQKTGSACLLVASKLRSLTPISTSSLCYAAADSFSRQELIDQEKELLEKLAWRTEAVLATDVTSFLLLKLLGGSQHLDFWHHEVNTLITKALVDPKTGSLPASIISAAGCALLVPANVIPQDTHSGGVVPQLASILGCDVSVLQAAVEQILTSVSDFDLRILDSY
modifications: biotin (on the Avi tag)
notes: also called viral D-type cyclin from Kaposi's sarcoma-associated herpesvirus; source: purified
B3: GSTCDK4 (enzyme, human, UniProt P11802 1-303, looked up)
chain: MATSRYEPVAEIGVGAYGTVYKARDPHSGHFVALKSVRVPNGGGGGGGLPISTVREVALLRRLEAFEHPNVVRLMDVCATSRTDREIKVTLVFEHVDQDLRTYLDKAPPPGLPAETIKDLMRQFLRGLDFLHANCIVHRDLKPENILVTSGGTVKLADFGLARIYSYQMALTPVVVTLWYRAPEVLLQSTYATPVDMWSVGCIFAEMFRRKPLFCGNSEADQLGKIFDLIGLPPEDDWPRDVSLPRGAFPPRGPRPVQSVVPEMEESGAQLLLEMLTFNPHKRISAFRALQHSYLHKDEGNPE
notes: also called GST-tagged CDK4
B4: untagged p16INK4a (natural protein, UniProt P42771 1-156, looked up)
chain: MEPAAGSSMEPSADWLATAAARGRVEEVRALLEAGALPNAPNSYGRRPIQVMMMGSARVAELLLLHGAEPNCADPATLTRPVHDAAREGFLDTLVVLHRAGARLDVRDAWGRLPVDLAEELGHRDVARYLRAAAGGTRGSNHARIDAAEGPSDIPD
notes: also called wild-type p16INK4a; authentic p16INK4a
B5: p16M53I (natural protein, UniProt P42771 1-156, looked up)
chain: B4 chain with M53I
notes: also called p16INK4a M53I
B6: p16D108N (natural protein, UniProt P42771 1-156, looked up)
chain: B4 chain with D108N
notes: also called p16INK4a D108N
B7: p16D84N (natural protein, UniProt P42771 1-156, looked up)
chain: B4 chain with D84N
notes: also called p16INK4a D84N
B8: p16M53E (natural protein, UniProt P42771 1-156, looked up)
chain: B4 chain with M53E
notes: also called p16INK4a M53E

Tests used:
Conditions in all cases: both partners purified
GSTCDK4 [1] = biological target: B3; test: AlphaScreen or HTRF; direct binding: GST-fused CDK (10 nM) and biotinylated Avi-tagged partner titrated; terbium-conjugated anti-GST antibody and streptavidin-XL665
GSTCDK6 [2] = biological target: T2, GSTCDK6 (human, UniProt Q00534 1-326); test: as above
T2 construct: also called GST-tagged CDK6
T2 sequence (Q00534 whole entry): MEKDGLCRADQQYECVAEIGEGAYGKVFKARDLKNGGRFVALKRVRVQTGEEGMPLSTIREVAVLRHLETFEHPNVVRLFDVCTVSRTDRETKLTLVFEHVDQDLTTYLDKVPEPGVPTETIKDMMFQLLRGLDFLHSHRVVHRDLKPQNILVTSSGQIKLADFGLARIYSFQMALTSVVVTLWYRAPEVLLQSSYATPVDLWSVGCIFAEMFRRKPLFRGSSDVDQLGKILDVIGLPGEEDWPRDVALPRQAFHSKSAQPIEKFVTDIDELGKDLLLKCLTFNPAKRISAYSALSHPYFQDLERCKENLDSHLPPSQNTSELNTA

[3] = biological target: T1, biotinylated C-terminally Avi-tagged …; test: as above
GSTCDK4 [4] = biological target: B3; test: SPR
GSTCDK6 [5] = biological target: T2, GSTCDK6; test: SPR
GSTCDK4 [6] = biological target: B3; test: SPR; remark: listed apart in the source
GSTCDK6 [7] = biological target: T2, GSTCDK6; test: SPR; remark: listed apart in the source

## B1
GSTCDK4 [1]
  Kd: 151 nM
GSTCDK6 [2]
  Kd: 14.9 nM

## B2
GSTCDK4 [1]
  Kd: 24.9 nM
GSTCDK6 [2]
  Kd: 10 nM

## B3
[3]
  Kd: 92 nM

## B4
GSTCDK4 [4]
  Kd: 0.87 nM
GSTCDK6 [5]
  Kd: 0.26 nM

## B5
GSTCDK4 [6]
  fold reduction in the strength of the interaction against wild-type p16INK4a: > 1e+06 fold
GSTCDK6 [7]
  fold higher rate of dissociation against wild-type p16INK4a: ~10 fold
GSTCDK6 [5]
  Kd: 0.73 nM

## B6
GSTCDK4 [4]
  Kd: 2.56 nM
GSTCDK6 [5]
  Kd: 0.28 nM

## B7
GSTCDK4 [6]
  binding result: binds
GSTCDK6 [5]
  Kd: 59.7 nM

## B8
GSTCDK4 [6]
  binding result: binds
GSTCDK6 [5]
  Kd: 1.56 nM
